These results are taken from patent publication US20250152729A1 (CANCER RESEARCH TECHNOLOGY, published 2025).

Usually Kd stands for a measure of binding affinity in units of concentration.

The target of experiment [1] is T1, recombinant human SEMA4A AviHis10, biotinylated (human, UniProt Q9H3S1 33-683, biotin on the Avi tag (BirA)).
T1 construct: The text says amino acids 33-683 of Q9H3S1 with C-terminal Avi tag and His10 tag; also called avi-SEMA4A-His10
T1 sequence: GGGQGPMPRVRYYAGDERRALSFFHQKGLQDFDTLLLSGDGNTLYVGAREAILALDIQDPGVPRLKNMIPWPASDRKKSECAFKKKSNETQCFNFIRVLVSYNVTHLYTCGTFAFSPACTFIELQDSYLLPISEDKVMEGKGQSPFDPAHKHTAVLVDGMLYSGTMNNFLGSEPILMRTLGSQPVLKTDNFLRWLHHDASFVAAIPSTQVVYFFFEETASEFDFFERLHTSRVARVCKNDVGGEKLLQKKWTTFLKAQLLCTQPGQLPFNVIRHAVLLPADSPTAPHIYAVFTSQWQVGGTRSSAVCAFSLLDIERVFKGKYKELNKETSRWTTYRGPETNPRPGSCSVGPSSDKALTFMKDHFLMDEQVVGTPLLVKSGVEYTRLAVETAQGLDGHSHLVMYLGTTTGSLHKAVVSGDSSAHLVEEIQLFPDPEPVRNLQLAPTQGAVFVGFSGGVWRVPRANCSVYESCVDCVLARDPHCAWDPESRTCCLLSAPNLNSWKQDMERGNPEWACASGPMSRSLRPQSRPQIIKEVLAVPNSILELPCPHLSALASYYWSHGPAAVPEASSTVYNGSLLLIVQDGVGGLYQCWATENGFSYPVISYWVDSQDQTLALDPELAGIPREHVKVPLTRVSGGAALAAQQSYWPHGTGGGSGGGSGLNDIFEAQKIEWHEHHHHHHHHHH
As to the kind of experiment: BLI (OctetRED), biotinylated SEMA4A on streptavidin tip, Fab as analyte, 1:1 model. The method, then: (§1) An Octet Kinetics buffer (PBS containing 0.01% (v/v) BSA and 0.002% (v/v) Tween20) is typically used as the diluent buffer for the analyte samples and as the flow buffer during the dissociation phase. The experimental data is recorded as shift in interference pattern (nm) over time, which is directly proportional to the optical thickness at the biosensor tip, which in turn is an approximate measure of the mass of analyte bound. The proprietary Octet Data Analysis software package can then be used to process data and fit binding models to the data sets. Returned association (ka, M-1 s-1) and dissociation (kd, s-1) rate constants allow calculation of dissociation (KD, M) affinity constants.
(§2) The affinity of binding between the analytes (humanised and phage display derived IgGs as human Alya IgG1s and Fabs) and human SEMA4A and cynomolgus SEMA4A, was estimated using assays in which the biotinylated SEMA4A antigen was captured on a streptavidin sensor tip. A fresh sensor tip was used for each measurement and no regeneration was used. A series of dilutions of the lead Fabs and human Alya IgG1s (3.25-240 nM) were individually placed in contact with the ligand surface for a sufficient amount of time to observe sensorgrams that could be fitted to an appropriate binding model with confidence (typically 5 minutes), followed by an appropriate length of dissociation time (typically 10 minutes). Blank reference (0 nM analyte) data were subtracted from each dataset to reduce the impact of any buffer artefacts or non-specific binding effects. A 1:1 binding model was then fitted simultaneously to the data from each analyte titration using the Octet Evaluation software (Table 8).

Experiment [2] addresses T2, recombinant cynomolgus SEMA4A AviHis10, biotinylated (cynomolgus, UniProt Q9H3S1 32-677 (human entry), biotin on the Avi tag (BirA)).
T2 construct: The text says amino acids 32-679 of G7NV79 with C-terminal Avi tag and His10 tag; also called Cyno SEMA4A AviHis10; cynoSEMA4A
T2 chain: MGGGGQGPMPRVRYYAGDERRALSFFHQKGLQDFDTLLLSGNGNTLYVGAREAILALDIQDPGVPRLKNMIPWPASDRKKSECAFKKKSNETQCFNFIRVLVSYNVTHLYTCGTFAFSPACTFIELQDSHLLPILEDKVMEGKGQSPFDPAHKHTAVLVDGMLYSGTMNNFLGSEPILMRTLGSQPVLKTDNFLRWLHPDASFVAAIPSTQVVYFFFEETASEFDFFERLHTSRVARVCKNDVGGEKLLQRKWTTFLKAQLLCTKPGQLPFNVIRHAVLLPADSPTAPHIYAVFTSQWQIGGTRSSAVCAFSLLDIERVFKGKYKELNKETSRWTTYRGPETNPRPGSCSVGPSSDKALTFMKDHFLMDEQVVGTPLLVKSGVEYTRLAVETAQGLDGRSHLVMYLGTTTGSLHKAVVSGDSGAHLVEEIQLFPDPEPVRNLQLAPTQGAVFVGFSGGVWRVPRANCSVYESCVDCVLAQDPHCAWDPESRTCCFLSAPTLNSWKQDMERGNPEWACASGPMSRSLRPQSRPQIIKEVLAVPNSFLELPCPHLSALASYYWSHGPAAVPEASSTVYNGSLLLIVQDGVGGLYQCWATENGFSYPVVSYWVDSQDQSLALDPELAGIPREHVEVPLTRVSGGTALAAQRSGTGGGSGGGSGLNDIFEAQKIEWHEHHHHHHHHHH
Described as above. The procedure:
as §1, §2

Experiment [3] deals with T3, human SEMA4A expressed on cells (UniProt ID Q9H3S1, isoform 1) (human, UniProt Q9H3S1 33-761).
T3 construct: Cell-surface SEMA4A: endogenous on MM.1S, NCI-H929 and Karpas-25 cells, or expi293 cells transfected with Origene SC323738; also called human Semaphorin4A; SEMA4A endogenously expressed on MM.1S cells
T3 sequence: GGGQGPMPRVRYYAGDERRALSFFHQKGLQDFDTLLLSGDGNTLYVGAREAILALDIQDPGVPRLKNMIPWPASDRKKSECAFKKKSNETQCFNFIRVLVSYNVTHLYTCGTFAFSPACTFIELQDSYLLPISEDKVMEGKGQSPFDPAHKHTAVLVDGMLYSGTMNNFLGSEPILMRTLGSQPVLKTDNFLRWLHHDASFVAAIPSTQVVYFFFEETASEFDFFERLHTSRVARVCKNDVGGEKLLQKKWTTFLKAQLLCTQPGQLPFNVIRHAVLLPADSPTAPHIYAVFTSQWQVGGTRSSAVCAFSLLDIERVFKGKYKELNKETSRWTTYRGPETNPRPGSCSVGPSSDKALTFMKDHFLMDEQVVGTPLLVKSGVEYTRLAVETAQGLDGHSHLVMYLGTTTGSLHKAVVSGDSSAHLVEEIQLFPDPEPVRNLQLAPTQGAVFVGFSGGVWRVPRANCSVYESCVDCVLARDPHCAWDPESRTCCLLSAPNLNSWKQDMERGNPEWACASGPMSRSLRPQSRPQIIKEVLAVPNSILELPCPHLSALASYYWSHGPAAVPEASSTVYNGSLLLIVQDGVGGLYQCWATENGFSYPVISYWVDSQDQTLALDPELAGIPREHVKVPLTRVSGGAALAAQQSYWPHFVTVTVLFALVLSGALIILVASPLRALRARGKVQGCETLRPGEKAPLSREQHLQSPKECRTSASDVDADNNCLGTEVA
Put plainly: direct binding of un-purified human IgG1 to MM.1S cells endogenously expressing human SEMA4A (Mirrorball, anti-human Alexa Fluor 647); single concentration, 1.56 % final. The procedure: The MM.1S binding assay assessed the ability of the un-purified human IgG1s to bind directly to human SEMA4A that was endogenously expressed by MM.1S cells. Direct binding of a single concentration of un-purified human IgG1s to MM.1S cells was measured via an anti-human secondary labelled with Alexa Fluor 647 (Invitrogen, A21445). 10 μl undiluted un-purified IgG, contained in Expi293 expression medium (Gibco, UK, A1435101), were added to the assay plate (Greiner Bio-one, UK, 781906), followed by 10 μl 8 nM anti-human Alexa Fluor 647 and 20 μl MM.1S cell suspension containing 1,500 cells. The assay plate was incubated for 4 hours at room temperature in the dark prior to reading on a Mirrorball fluorescence cytometer (SPT Labtech, UK) using a 640 nm laser for excitation and measuring emission in the FL-4 channel (650-690 nm). Data was analysed as Count x median mean intensity (x FLU). All dilutions were performed in Hanks' balanced salt solution (Sigma, UK; cat: H8264) containing 0.1% (w/v) BSA (Sigma, UK; cat: A9576). Data were analysed and graphed using GraphPad Prism software (GraphPad Software, Inc, La Jolla, CA).

B1: 5Hg1-5Lg1 Fab fragment (Fab, V domains shown)
VH: QVQLVQSGAEVKKPGASVKVSCKASGYTFTDYWMHWVRQAPGQGLEWMGAIDTSDSYTSYNQKFKGRVTMTRDTSTSTVYMELSSLRSEDTAVYYCARDYGNFYYYAMDYWGQGTLVTVSS
VL: QAVVTQEPSLTVSPGGTVTLTCRSSTGAVTTSNYANWFQQKPGQAPRTLIYGTNNRAPWTPARFSGSLLGGKAALTLSGAQPEDEAEYYCALWYSNHWVFGGGTKLTVL
notes: Fab from pEU1.3 Fab vector (human CH1 and part of hinge) with a whole human light chain constant
With B1, the Kd in experiment [1] was 66 nM; in experiment [2], 73 nM.

B2: 5Hg2-5Lg2 Fab fragment (Fab, V domains shown)
VH: QVQLVQSGAEVKKPGASVKVSCKASGYTFTDYWMHWVRQAPGQRLEWMGAIDTSDSYTSYNQKFKGRVTITRDTSASTAYMELSSLRSEDTAVYYCARDYGNFYYYAMDYWGQGTLVTVSS
VL: QAVVTQEPSLTVSPGGTVTLTCRSSTGAVTTSNYANWFQQKPGQAPRTLIYGTNNRAPWTPARFSGSLLGGKAALTLLGAQPEDEAEYYCALWYSNHWVFGGGTKLTVL
notes: as for B1
In the case of B2, the values for the dissociation constant (Kd) in experiment [1] and in experiment [2] were 41 nM and 48 nM, respectively.

B3: mouse 5E3 Fab fragment (Fab, V domains shown)
VH: QVQLQQPGAELVMPGASVKMSCKASGYTFTDYWMHWVKQRPGQGLEWIGAIDTSDSYTSYNQKFKGKATLTVDESSSTAYMQLSSLTSEDSAVYYCARDYGNFYYYAMDYWGQGTSVTVSS
VL: QAVVTQESALTTSPGETVTLTCRSSTGAVTTSNYANWVQEKPDHLFTGLIGGTNNRAPGVPARFSGSLIGDKAALTITGAQTEDEAIYFCALWYSNHWVFGGGTKLTVL
notes: Fab from pEU1.3 Fab vector (human CH1 and part of hinge) with a whole human light chain constant; also called Mouse 5E3 (KD Fab)
For the molecule B3, the Kd in experiment [1] and in experiment [2] was 9 nM each time.

B4: C0120904 (antibody, V domains shown)
VH: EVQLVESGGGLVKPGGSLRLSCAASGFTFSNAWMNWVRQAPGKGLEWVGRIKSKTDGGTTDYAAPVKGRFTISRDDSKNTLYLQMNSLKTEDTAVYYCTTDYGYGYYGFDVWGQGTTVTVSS
VL: SYELTQPPSVSVSPGQTATISCSGNKLGDGYVSWYQQKPGQSPVLVIYQDSKRPSGIPQRYSGSNSGNTATLTISGTQAIDEADYYCQAWDSSTVVFGGGTKVTVL
notes: un-purified fully human phage display IgG, primary screen; also called C0120904 un-purified human IgG1
With B4, in experiment [3], the binding result is “binds”.
